Results: article PMC6016062 (Bioconjugate Chemistry, 2018)
Residues, ends and D or L forms follow the SMILES beside them. No end group written: not given here. *: point of attachment. Propyl(3-UDP) = O=c1ccn([C@@H]2O[C@H](COP(=O)(O)OP(=O)(O)OCCC*)[C@@H](O)[C@H]2O)c(=O)[nH]1; Floc = 5(6)-fluorescein carboxamide; Ahx = NCCCCCC(=O)O

Experiments:
hOGT [1] = molecular target: T1, hOGT (Homo sapiens, UniProt O15294); assay: fluorescence polarimetry assay, displacement of probe 17 from hOGT; assay type: binding; settings: displacement of 0.75 µM 17 from 0.8 µM hOGT
T1 sequence (O15294 312-1031 isoform O15294-3): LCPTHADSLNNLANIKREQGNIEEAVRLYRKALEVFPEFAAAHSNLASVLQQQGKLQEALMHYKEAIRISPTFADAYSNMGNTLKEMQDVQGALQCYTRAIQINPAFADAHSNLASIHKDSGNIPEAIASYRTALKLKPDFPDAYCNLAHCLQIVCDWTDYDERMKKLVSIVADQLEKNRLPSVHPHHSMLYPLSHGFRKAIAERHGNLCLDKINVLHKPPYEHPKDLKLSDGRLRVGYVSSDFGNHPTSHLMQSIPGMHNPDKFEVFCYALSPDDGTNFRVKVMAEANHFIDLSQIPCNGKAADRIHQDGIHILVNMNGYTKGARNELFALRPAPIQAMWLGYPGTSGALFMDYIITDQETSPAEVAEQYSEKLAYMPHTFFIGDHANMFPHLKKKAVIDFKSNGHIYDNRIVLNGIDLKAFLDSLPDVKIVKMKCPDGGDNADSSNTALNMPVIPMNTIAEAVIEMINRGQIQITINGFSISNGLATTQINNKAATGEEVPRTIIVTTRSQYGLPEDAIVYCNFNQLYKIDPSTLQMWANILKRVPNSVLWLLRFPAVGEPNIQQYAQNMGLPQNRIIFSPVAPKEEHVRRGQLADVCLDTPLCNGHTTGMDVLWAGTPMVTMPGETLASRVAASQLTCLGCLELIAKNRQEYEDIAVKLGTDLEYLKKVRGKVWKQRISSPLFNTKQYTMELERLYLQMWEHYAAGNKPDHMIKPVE
Procedure: The derived values of Ki = 7 ± 2 μM (1) and Ki = 5 ± 2 μM (UDP-5S-GlcNAc) were in agreement with the previously reported affinities,[20],[25] validating this assay.
Next, we used this assay platform to examine the effect of the peptide sequence on the inhibitory potency of the S-linked UDP–peptide conjugates. We compiled a set of peptides derived from the known hOGT substrate proteins RB2, TAB1, CK2, and KER, as well as a previously published hOGT sequon[38] (Table 1). The topology of the heptapeptides in the 7-S5C subseries (19–23) was chosen to replicate that of the peptide 5. The nonapeptides 9-S5C (24–26) were designed with a centrally located Cys. […] The TEC reaction of allyl-UDP 4 with all substrates worked routinely well to give an array of the novel S-linked UDP–peptide conjugates 29–38 (Table 1, Table S1) that were evaluated by the modified FP assay (Table 1, Figure 5).
Fluorescence polarimetry measurements […]
probe (125 nM) in 0.1 M Tris-HCl pH 7.5, 0.15 M NaCl, 0.5 mM TCEP and 5% DMSO in a total volume of 25 µL and incubated in the dark for 30 min before read-out.
Binding affinities for ligands were determined by 17 displacement. […] Fluorescence polarisation was measured on a PHERAStar plate reader (BMG LABTECH). Data analysis was performed in GraphPad Prism 7 and binding constants for the labelled 17 and 18 were determined by fitting a one-site – Total binding curve. […]

SH-SY5Y cells = assay: total O-GlcNAcylation in cell culture, Western blot (SH-SY5Y); assay type: cell-based; settings: 24 h, concentrations up to 1 mM
hOGT [2] = molecular target: T1, hOGT; assay: fluorometric hOGT activity assay (UDP formation)
OGT = molecular target: OGT; parameters: method as in PMID 23103942; settings: read-out: Kd of donor substrate; cited from earlier work
[3] = molecular target: human O-GlcNAc transferase (human) (UniProt O15294)
[4] = molecular target: T2, human O-GlcNAc transferase (human, UniProt O15294 1-1046); assay: cell-based or functional assay
T2 sequence (looked up): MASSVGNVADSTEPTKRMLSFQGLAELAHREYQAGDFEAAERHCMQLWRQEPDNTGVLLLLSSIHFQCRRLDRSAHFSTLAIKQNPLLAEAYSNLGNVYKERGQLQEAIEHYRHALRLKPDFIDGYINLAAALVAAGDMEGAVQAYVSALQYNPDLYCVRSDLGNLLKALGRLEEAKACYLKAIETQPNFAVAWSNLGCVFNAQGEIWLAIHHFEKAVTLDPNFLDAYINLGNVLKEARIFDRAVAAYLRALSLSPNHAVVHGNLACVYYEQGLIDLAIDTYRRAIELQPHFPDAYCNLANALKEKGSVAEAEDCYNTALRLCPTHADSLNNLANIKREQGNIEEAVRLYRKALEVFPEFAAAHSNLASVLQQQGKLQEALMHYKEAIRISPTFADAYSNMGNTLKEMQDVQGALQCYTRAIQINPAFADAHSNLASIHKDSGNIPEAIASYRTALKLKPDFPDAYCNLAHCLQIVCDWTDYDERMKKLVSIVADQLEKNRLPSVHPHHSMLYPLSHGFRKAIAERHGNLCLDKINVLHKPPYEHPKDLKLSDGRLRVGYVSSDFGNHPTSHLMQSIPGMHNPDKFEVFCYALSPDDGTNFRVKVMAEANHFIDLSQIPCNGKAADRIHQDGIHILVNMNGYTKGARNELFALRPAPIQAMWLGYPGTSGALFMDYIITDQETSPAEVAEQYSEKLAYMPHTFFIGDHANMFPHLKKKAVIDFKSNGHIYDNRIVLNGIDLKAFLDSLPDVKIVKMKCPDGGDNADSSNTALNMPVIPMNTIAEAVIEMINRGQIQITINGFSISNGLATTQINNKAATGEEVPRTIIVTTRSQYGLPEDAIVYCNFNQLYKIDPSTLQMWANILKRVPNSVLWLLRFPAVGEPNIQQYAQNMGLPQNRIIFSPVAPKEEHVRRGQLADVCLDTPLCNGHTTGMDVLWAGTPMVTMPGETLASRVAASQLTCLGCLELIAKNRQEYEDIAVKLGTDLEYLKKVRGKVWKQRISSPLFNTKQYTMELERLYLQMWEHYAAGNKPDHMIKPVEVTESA

[5] = molecular target: T2, human O-GlcNAc transferase; assay: fluorescence polarisation; competition: displacement of the fluorescent probe 17 from hOGT by unlabeled conjugates, Ki derived; settings: both partners purified
[6] = molecular target: T2, human O-GlcNAc transferase; assay: as above; settings: both partners purified; remark: listed apart in the source
[7] = molecular target: T2, human O-GlcNAc transferase; assay: fluorescence polarisation; direct binding of the fluorescein-labeled conjugates 17 and 18 to hOGT; settings: both partners purified

Molecule | Ki [5] [µM] | other results
CC(=O)N[C@@H]1[C@@H](O)[C@H](O)[C@@H](CO)S[C@@H]1OP(=O)(O)OP(=O)(O)OC[C@H]1O[C@@H](n2ccc(=O)[nH]c2=O)[C@H](O)[C@@H]1O [UDP-5S-GlcNAc, reference compound] |  | Ki (hOGT [1]): 5 ± 2 µM
CC(=O)N[C@H](C(=O)N[C@H](C(=O)N1CCC[C@H]1C(=O)N[C@H](C(=O)N[C@@H](CSCCCOP(=O)(O)OP(=O)(O)OC[C@H]1O[C@@H](n2ccc(=O)[nH]c2=O)[C@H](O)[C@@H]1O)C(=O)N[C@@H](CCCNC(=N)N)C(=O)N[C@@H](C)C(N)=O)C(C)C)[C@@H](C)O)C(C)C [compound 32] (Ac-VTPVC(Propyl(3-UDP))RA-NH2) |  | Ki (hOGT [1]): 1.3 ± 0.5 µM
CC(=O)N[C@@H](Cc1ccc(O)cc1)C(=O)NCC(=O)N[C@@H](CCCNC(=N)N)C(=O)N[C@@H](CCCCN)C(=O)N[C@@H](CCCCN)C(=O)N[C@@H](CCCNC(=N)N)C(=O)N[C@@H](CCCNC(=N)N)C(=O)N[C@@H](CCC(N)=O)C(=O)N[C@@H](CCCNC(=N)N)C(=O)N[C@@H](CCCNC(=N)N)C(=O)N[C@@H](CCCNC(=N)N)C(=O)NCCOCCOCC(=O)N[C@H](C(=O)N[C@H](C(=O)N1CCC[C@H]1C(=O)N[C@H](C(=O)N[C@@H](CSCCCOP(=O)(O)OP(=O)(O)OC[C@H]1O[C@@H](n2ccc(=O)[nH]c2=O)[C@H](O)[C@@H]1O)C(=O)N[C@H](C(=O)N[C@@H](C)C(N)=O)[C@@H](C)O)C(C)C)[C@@H](C)O)C(C)C [compound 13] |  | effect on total O-GlcNAcylation in cell cultures (SH-SY5Y cells): neither 11 nor 13 had a noticeable effect; IC50 (hOGT [2]): 5 µM
CC(=O)N[C@H]1[C@@H](OP(=O)(O)OP(=O)(O)OC[C@H]2O[C@@H](n3ccc(=O)[nH]c3=O)[C@H](O)[C@@H]2O)O[C@H](CO)[C@@H](O)[C@@H]1O [UDP-GlcNAc] |  | Kd (OGT): 16 µM
TAT-VTPVC(S-propyl-UDP)TA S-linked UDP-peptide conjugate 13 |  | inhibition of hOGT activity in vitro, IC50 [3]: 5 µM
VTPVC(S‑propyl‑UDP)TA [S-linked UDP-peptide conjugate 6, VTPVC(S-propyl-UDP)TA] | 1.3 ± 0.8 | inhibition of hOGT activity, fluorometric OGT activity assay, IC50 [4]: 2 µM
VTPVS(O‑propyl‑UDP)TA [O-linked UDP-peptide conjugate 1, VTPVS(O-propyl-UDP)TA] |  | Ki [6]: 7 ± 2 µM
VTPVC(S‑propyl‑UDP)SA [S-linked UDP-peptide conjugate 31, VTPVC(S-propyl-UDP)SA] | 1.2 ± 1.3 | 
{Floc-Ahx}-VTPVC(S‑propyl‑UDP)TA [5(6)-fluorescein carboxamide (Floc) labeled S-linked UDP-peptide conjugate 17] |  | Kd [7]: 1.6 µM
VTPVC(S‑propyl‑UDP)TATH [S-linked UDP-peptide conjugate 34, VTPVC(S-propyl-UDP)TATH] | 12.7 ± 2.3 | 
SVPYC(S‑propyl‑UDP)SAQS [S-linked UDP-peptide conjugate 35, SVPYC(S-propyl-UDP)SAQS] | 15 ± 2.3 | 
PVFTC(S‑propyl‑UDP)RSAA [S-linked UDP-peptide conjugate 36, PVFTC(S-propyl-UDP)RSAA] | 56 ± 32 | 
PVC(S‑propyl‑UDP)TATHSLSRLH [S-linked UDP-peptide conjugate 37, PVC(S-propyl-UDP)TATHSLSRLH] | 80 ± 46 | 
KENSPAVTPVC(S‑propyl‑UDP)TA [S-linked UDP-peptide conjugate 38, KENSPAVTPVC(S-propyl-UDP)TA] | 1.8 ± 1.3 | 
VPTVC(S‑propyl‑UDP)TA [S-linked UDP-peptide conjugate 29, VPTVC(S-propyl-UDP)TA] | 12.8 ± 4.5 | 
SVPYC(S‑propyl‑UDP)SA [S-linked UDP-peptide conjugate 30, SVPYC(S-propyl-UDP)SA] | 2.3 ± 1.6 | 
PVFTC(S‑propyl‑UDP)RS [S-linked UDP-peptide conjugate 33, PVFTC(S-propyl-UDP)RS] | 12.5 ± 7 | 
